Laboratory results from IntAct's records for PubMed 31515488.

B1: X-linked retinitis pigmentosa GTPase regulator (Homo sapiens), Q92834 (parent)
chain: MREPEELMPDSGAVFTFGKSKFAENNPGKFWFKNDVPVHLSCGDEHSAVVTGNNKLYMFGSNNWGQLGLGSKSAISKPTCVKALKPEKVKLAACGRNHTLVSTEGGNVYATGGNNEGQLGLGDTEERNTFHVISFFTSEHKIKQLSAGSNTSAALTEDGRLFMWGDNSEGQIGLKNVSNVCVPQQVTIGKPVSWISCGYYHSAFVTTDGELYVFGEPENGKLGLPNQLLGNHRTPQLVSEIPEKVIQVACGGEHTVVLTENAVYTFGLGQFGQLGLGTFLFETSEPKVIENIRDQTISYISCGENHTALITDIGLMYTFGDGRHGKLGLGLENFTNHFIPTLCSNFLRFIVKLVACGGCHMVVFAAPHRGVAKEIEFDEINDTCLSVATFLPYSSLTSGNVLQRTLSARMRRRERERSPDSFSMRRTLPPIEGTLGLSACFLPNSVFPRCSERNLQESVLSEQDLMQPEEPDYLLDEMTKEAEIDNSSTVESLGETTDILNMTHIMSLNSNEKSLKLSPVQKQKKQQTIGELTQDTALTENDDSDEYEEMSEMKEGKACKQHVSQGIFMTQPATTIEAFSDEEVGNDTGQVGPQADTDGEGLQKEVYRHENNNGVDQLDAKEIEKESDGGHSQKESEAEEIDSEKETKLAEIAGMKDLREREKSTKKMSPFFGNLPDRGMNTESEENKDFVKKRESCKQDVIFDSERESVEKPDSYMEGASESQQGIADGFQQPEAIEFSSGEKEDDEVETDQNIRYGRKLIEQGNEKETKPIISKSMAKYDFKCDRLSEIPEEKEGAEDSKGNGIEEQEVEANEENVKVHGGRKEKTEILSDDLTDKAEDHEFSKTEELKLEDVDEEINAENVESKKKTVGDDESVPTGYHSKTEGAERTNDDSSAETIEKKEKANLEERAICEYNENPKGYMLDDADSSSLEILENSETTPSKDMKKTKKIFLFKRVPSINQKIVKNNNEPLPEIKSIGDQIILKSDNKDADQNHMSQNHQNIPPTNTERRSKSCTIL
partner: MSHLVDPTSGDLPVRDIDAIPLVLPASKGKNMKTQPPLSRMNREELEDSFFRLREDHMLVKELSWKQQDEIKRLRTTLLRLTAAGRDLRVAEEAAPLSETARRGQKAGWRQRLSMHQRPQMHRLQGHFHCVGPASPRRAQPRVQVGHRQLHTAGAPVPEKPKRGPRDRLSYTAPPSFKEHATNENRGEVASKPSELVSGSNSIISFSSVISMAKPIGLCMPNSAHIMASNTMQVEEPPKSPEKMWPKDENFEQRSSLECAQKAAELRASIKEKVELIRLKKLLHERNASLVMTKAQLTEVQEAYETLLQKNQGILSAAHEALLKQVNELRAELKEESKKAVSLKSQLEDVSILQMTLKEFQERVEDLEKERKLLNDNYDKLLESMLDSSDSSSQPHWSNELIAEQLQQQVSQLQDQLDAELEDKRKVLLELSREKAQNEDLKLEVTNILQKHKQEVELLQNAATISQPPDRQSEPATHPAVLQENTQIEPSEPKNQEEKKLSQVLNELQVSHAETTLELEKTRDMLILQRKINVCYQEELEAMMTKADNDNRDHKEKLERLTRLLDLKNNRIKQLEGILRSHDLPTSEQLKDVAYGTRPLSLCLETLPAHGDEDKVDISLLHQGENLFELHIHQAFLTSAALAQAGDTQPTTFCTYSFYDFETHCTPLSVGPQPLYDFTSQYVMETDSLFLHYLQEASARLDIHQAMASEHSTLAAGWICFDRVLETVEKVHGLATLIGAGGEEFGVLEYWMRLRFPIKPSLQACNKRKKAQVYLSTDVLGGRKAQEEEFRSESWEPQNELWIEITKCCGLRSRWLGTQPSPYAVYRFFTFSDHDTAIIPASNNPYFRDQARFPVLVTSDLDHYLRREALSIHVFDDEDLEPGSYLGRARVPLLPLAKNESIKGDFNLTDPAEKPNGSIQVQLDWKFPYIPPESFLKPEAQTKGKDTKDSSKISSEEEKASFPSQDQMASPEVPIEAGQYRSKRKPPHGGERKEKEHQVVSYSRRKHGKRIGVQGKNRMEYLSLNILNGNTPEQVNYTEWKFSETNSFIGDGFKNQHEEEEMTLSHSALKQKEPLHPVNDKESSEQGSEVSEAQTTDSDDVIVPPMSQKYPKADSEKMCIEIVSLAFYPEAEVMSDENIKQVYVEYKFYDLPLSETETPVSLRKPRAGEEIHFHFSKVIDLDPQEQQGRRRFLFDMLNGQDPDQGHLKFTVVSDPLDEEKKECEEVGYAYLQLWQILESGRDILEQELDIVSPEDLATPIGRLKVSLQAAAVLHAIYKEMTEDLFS
B2: Tuftelin-interacting protein 11 (Homo sapiens), Q9UBB9 (parent)
chain: MSLSHLYRDGEGRIDDDDDERENFEITDWDLQNEFNPNRQRHWQTKEEATYGVWAERDSDDERPSFGGKRARDYSAPVNFISAGLKKGAAEEAELEDSDDEEKPVKQDDFPKDFGPRKLKTGGNFKPSQKGFAGGTKSFMDFGSWERHTKGIGQKLLQKMGYVPGRGLGKNAQGIINPIEAKQRKGKGAVGAYGSERTTQSMQDFPVVDSEEEAEEEFQKELSQWRKDPSGSKKKPKYSYKTVEELKAKGRISKKLTAPQKELSQVKVIDMTGREQKVYYSYSQISHKHNVPDDGLPLQSQQLPQSGKEAKAPGFALPELEHNLQLLIDLTEQEIIQNDRQLQYERDMVVNLFHELEKMTEVLDHEERVISNLSKVLEMVEECERRMQPDCSNPLTLDECARIFETLQDKYYEEYRMSDRVDLAVAIVYPLMKEYFKEWDPLKDCTYGTEIISKWKSLLENDQLLSHGGQDLSADAFHRLIWEVWMPFVRNIVTQWQPRNCDPMVDFLDSWVHIIPVWILDNILDQLIFPKLQKEVENWNPLTDTVPIHSWIHPWLPLMQARLEPLYSPIRSKLSSALQKWHPSDSSAKLILQPWKDVFTPGSWEAFMVKNIVPKLGMCLGELVINPHQQHMDAFYWVIDWEGMISVSSLVGLLEKHFFPKWLQVLCSWLSNSPNYEEITKWYLGWKSMFSDQVLAHPSVKDKFNEALDIMNRAVSSNVGAYMQPGARENIAYLTHTERRKDFQYEAMQERREAENMAQRGIGVAASSVPMNFKDLIETKAEEHNIVFMPVIGKRHEGKQLYTFGRIVIYIDRGVVFVQGEKTWVPTSLQSLIDMAK
partner: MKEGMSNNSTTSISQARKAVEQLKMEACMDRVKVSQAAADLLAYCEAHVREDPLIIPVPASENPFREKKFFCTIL
B3: C-type lectin domain family 1 member A (Homo sapiens), Q8NC01 (parent)
chain: MQAKYSSTRDMLDDDGDTTMSLHSQGSATTRHPEPRRTEHRAPSSTWRPVALTLLTLCLVLLIGLAALGLLFFQYYQLSNTGQDTISQMEERLGNTSQELQSLQVQNIKLAGSLQHVAEKLCRELYNKAGAHRCSPCTEQWKWHGDNCYQFYKDSKSWEDCKYFCLSENSTMLKINKQEDLEFAASQSYSEFFYSYWTGLLRPDSGKAWLWMDGTPFTSELFHIIIDVTSPRSRDCVAILNGMIFSKDCKELKRCVCERRAGMVKPESLHVPPETLGEGD
partner: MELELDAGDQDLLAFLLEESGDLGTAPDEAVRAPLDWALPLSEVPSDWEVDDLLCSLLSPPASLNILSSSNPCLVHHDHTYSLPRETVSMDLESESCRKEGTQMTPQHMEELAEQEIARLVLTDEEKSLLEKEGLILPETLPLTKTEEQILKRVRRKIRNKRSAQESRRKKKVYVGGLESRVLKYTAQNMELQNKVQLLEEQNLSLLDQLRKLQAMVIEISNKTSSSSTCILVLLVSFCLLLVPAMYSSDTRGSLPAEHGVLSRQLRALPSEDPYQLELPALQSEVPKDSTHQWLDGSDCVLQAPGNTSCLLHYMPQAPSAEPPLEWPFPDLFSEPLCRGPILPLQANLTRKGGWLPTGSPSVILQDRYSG
B4: Caspase recruitment domain-containing protein 9 (Homo sapiens), Q9H257 (parent)
chain: MSDYENDDECWSVLEGFRVTLTSVIDPSRITPYLRQCKVLNPDDEEQVLSDPNLVIRKRKVGVLLDILQRTGHKGYVAFLESLELYYPQLYKKVTGKEPARVFSMIIDASGESGLTQLLMTEVMKLQKKVQDLTALLSSKDDFIKELRVKDSLLRKHQERVQRLKEECEAGSRELKRCKEENYDLAMRLAHQSEEKGAALMRNRDLQLEIDQLKHSLMKAEDDCKVERKHTLKLRHAMEQRPSQELLWELQQEKALLQARVQELEASVQEGKLDRSSPYIQVLEEDWRQALRDHQEQANTIFSLRKDLRQGEARRLRCMEEKEMFELQCLALRKDSKMYKDRIEAILLQMEEVAIERDQAIATREELHAQHARGLQEKDALRKQVRELGEKADELQLQVFQCEAQLLAVEGRLRRQQLETLVLSSDLEDGSPRRSQELSLPQDLEDTQLSDKGCLAGGGSPKQPFAALHQEQVLRNPHDAGLSSGEPPEKERRRLKESFENYRRKRALRKMQKGWRQGEEDRENTTGSDNTDTEGS
partner: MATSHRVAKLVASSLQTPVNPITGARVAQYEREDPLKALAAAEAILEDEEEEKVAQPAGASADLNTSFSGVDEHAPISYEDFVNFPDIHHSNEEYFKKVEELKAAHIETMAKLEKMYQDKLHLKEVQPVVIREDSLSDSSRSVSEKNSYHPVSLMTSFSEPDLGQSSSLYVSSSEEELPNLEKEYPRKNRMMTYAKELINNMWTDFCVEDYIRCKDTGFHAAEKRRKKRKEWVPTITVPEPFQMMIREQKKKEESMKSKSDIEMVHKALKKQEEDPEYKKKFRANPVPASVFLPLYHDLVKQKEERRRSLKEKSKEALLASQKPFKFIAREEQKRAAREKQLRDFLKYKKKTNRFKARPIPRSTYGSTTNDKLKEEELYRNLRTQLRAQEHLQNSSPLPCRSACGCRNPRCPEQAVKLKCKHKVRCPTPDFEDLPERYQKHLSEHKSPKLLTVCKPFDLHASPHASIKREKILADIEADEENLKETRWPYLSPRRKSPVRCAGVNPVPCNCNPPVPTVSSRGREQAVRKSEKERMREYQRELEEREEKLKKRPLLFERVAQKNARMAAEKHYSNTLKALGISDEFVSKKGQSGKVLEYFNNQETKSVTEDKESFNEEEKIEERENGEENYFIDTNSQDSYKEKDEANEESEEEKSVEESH
B5: DNA repair and recombination protein RAD54B (Homo sapiens), Q9Y620 (parent)
chain: MRRSAAPSQLQGNSFKKPKFIPPGRSNPGLNEEITKLNPDIKLFEGVAINNTFLPSQNDLRICSLNLPSEESTREINNRDNCSGKYCFEAPTLATLDPPHTVHSAPKEVAVSKEQEEKSDSLVKYFSVVWCKPSKKKHKKWEGDAVLIVKGKSFILKNLEGKDIGRGIGYKFKELEKIEEGQTLMICGKEIEVMGVISPDDFSSGRCFQLGGGSTAISHSSQVARKCFSNPFKSVCKPSSKENRQNDFQNCKPRHDPYTPNSLVMPRPDKNHQWVFNKNCFPLVDVVIDPYLVYHLRPHQKEGIIFLYECVMGMRMNGRCGAILADEMGLGKTLQCISLIWTLQCQGPYGGKPVIKKTLIVTPGSLVNNWKKEFQKWLGSERIKIFTVDQDHKVEEFIKSIFYSVLIISYEMLLRSLDQIKNIKFDLLICDEGHRLKNSAIKTTTALISLSCEKRIILTGTPIQNDLQEFFALIDFVNPGILGSLSSYRKIYEEPIILSREPSASEEEKELGERRAAELTCLTGLFILRRTQEIINKYLPPKIENVVFCRPGALQIELYRKLLNSQVVRFCLQGLLENSPHLICIGALKKLCNHPCLLFNSIKEKECSSTCDKNEEKSLYKGLLSVFPADYNPLLFTEKESGKLQVLSKLLAVIHELRPTEKVVLVSNYTQTLNILQEVCKRHGYAYTRLDGQTPISQRQQIVDGFNSQHSSFFIFLLSSKAGGVGLNLIGGSHLILYDIDWNPATDIQAMSRVWRDGQKYPVHIYRLLTTGTIEEKIYQRQISKQGLCGAVVDLTKTSEHIQFSVEELKNLFTLHESSDCVTHDLLDCECTGEEVHTGDSLEKFIVSRDCQLGPHHQKSNSLKPLSMSQLKQWKHFSGDHLNLTDPFLERITENVSFIFQNITTQATGT
partner: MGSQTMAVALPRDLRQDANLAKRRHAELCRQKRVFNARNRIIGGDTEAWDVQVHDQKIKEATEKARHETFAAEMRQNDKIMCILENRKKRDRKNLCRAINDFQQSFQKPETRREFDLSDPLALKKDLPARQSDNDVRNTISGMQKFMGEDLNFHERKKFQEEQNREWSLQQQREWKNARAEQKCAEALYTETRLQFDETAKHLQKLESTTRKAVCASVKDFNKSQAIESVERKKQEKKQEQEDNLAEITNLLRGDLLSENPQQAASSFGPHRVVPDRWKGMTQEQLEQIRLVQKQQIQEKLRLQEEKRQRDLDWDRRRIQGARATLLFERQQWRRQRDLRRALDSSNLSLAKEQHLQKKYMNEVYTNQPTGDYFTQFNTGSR

Variants of: B1
Settings: with rpgr1_human RPGRIP1, Q96KN7

| Variant | effect of a mutation on the interaction |
| --- | --- |
| I431V | with no effect |
| R425K | with no effect |
| Q456R | with no effect |
| C302S | with no effect |
| I75V | with no effect |
| Q184H | with no effect |

Variants of: B2
Settings: with gbg4_human GNG4, P50150

| Variant | effect of a mutation on the interaction |
| --- | --- |
| R8Q | with no effect |
| S688L | with no effect |

Variants of: B3
Settings: with creb3_human CREB3, O43889

| Variant | effect of a mutation on the interaction |
| --- | --- |
| P272S | with no effect |
| G26A | with no effect |

Variants of: B4
Settings: with FAM161A

| Variant | effect of a mutation on the interaction |
| --- | --- |
| V385L | with no effect |

Variants of: B5
Settings: with ribc2_human RIBC2, Q9H4K1

| Variant | effect of a mutation on the interaction |
| --- | --- |
| L30V | with no effect |
